This is an account of results in article PMC4658667.

For orientation: Kd means the free concentration of one partner at which half of the binding sites on the other are occupied at equilibrium, for simple one-to-one binding.

The target of the experiment is CdiI^YPIII immunity protein from Yersinia pseudotuberculosis YPIII, His6-tagged (Yersinia pseudotuberculosis YPIII). The experiment is described as follows: BLI. (In general: In BLI a coated tip is dipped into the sample, and binding shifts an interference pattern.)

Substance “CdiA-CT^YPIII, C-terminal toxin domain of CdiA from Yersinia pseudotuberculosis YPIII (domain or fragment)” gave a Kd of 16 nM.
